B1: Storkhead-box protein 2, residues 64 to 141; numbered along this chain, Q9P2F5 (parent)
chain: SPISQSQFIPLGEILCLAISAMNSARKPVTQEALMEHLTTCFPGVPTPSQEILRHTLNTLVRERKIYPTPDGYFIVTP

Variants of: B1
Assay: abundance fitness (aPCA) (normalised: wild type 0, dead -1); higher = more abundant; growth selection in yeast, the domain comes from the species named
Settings: Homo sapiens

Abundance fitness of substitutions, site by site:
D71: Q -0.054; G 0.018; T 0.004; H 0.031; C -0.154; I -0.313; E -0.005; V -0.022; M -0.054; Y -0.243; A -0.002; S -0.05; R -0.088; N -0.012; P -0.223; W -0.189; K 0.073; F -0.099
T69: I -0.298; E -0.095; W -0.362; H -0.071; N -0.042; Q -0.036; R -0.015; A -0.028; Y -0.358; G -0.003; K -0.249; L -0.195; P -0.703; D -0.04; M -0.148; V -0.13
I66: R -1.17; L -0.05; E -1.08; T -0.38; V -0.041; Q -1.01; G -0.894; C 0.016; D -1.02; F -0.937; H -1; Y -0.971; M -0.249; W -0.847
Y73: V -0.171; E -0.089; N 0.043; K -0.085; D -0.136; S -0.011; P -0.149; I -0.261; L -0.029; W -0.041; R -0.055; Q -0.078; T -0.174; M -0.108
P68: R 0; N 0.009; H 0.051; Y -0.141; K -0.082; S 0.059; F -0.014; V 0.082; I -0.046; T 0.04; C 0.044; W -0.057; L 0.017; D -0.042; G -0.003; A 0.065; M -0.038
V76: C 0.03; A 0.001
P70: Y -0.061; V 0.011; W -0.141; Q 0.034; S 0.016; M -0.097; F -0.081; H -0.143; N 0.036; E -0.004; K 0.041; I 0.021; R 0.05; G -0.027; D 0.091; C -0.051; A 0.023; T 0.037
F74: H -0.248; M 0.073; S 0.077; W -0.002; N -0.361; K 0.024; G 0.052; I -0.001; E -0.004; C -0.042; D -0.038; T -0.031; V -0.003; P -0.445; Q 0.006; Y -0.065; A 0.095; L -0.046
Y67: V -0.02; F -0.021; M 0.102; N -0.06; G -0.053; T -0.05; R 0.022; H -0.006; P -0.566; Q -0.017; L -0.029; C 0.039; A 0.03; S 0.001; K 0.083; I 0.02; W -0.049
I75: Q -0.026; H -0.172; P -0.039; G -0.033; S 0.038; V 0.024; M 0.1; F -0.109; W -0.057; L -0.017; A -0.04; C 0.017; Y -0.013; K -0.219; N -0.177
G72: A -0.304; V -0.568; K -0.272; E -0.078; D -0.033; L -0.461; R -0.32; T -0.132; I -0.613; W -0.662; C -0.383; Y -0.527; N -0.16; M -0.209; P -0.614; S -0.121; Q -0.034; H -0.293
